Columns and labels:
[1] = target: T1, ZIKV H/PF/2013 envelope (E) protein dimer (Zika virus H/PF/2013, UniProt A0A024B7W1, strain); test: ELISA; recombinant E protein ELISA: DH1017 mAbs immobilised at 0.5 ug/mL in TBS; his-tagged recombinant E protein in 2-fold dilutions from 20 ug/mL, 1 hour at 37°C; anti-his HRP; OD450; details: both partners purified
T1 construct: also called ZIKV E dimer; his-tagged recombinant E protein dimer; source: recombinant

[2] = target: T2, ZIKV H/PF/2013 envelope (E) protein monomer (Zika virus H/PF/2013, UniProt A0A024B7W1, strain); test: as above; details: both partners purified
T2 construct: also called ZIKV E monomer

Scl-70 = target: T3, Scl-70 (Bos taurus (assumed), UniProt A0AAA9TV68); test: ELISA; autoantigen ELISA: purified antigens coated in 0.1M sodium bicarbonate; mAbs in 3-fold serial dilutions from 10 ug/ml, 1 hour at room temperature; HRP anti-human IgG, IgM and H+L; details: both partners purified
T3 construct: source: bought: Immunovision, SCL-3000
T3 sequence (P11387 whole entry): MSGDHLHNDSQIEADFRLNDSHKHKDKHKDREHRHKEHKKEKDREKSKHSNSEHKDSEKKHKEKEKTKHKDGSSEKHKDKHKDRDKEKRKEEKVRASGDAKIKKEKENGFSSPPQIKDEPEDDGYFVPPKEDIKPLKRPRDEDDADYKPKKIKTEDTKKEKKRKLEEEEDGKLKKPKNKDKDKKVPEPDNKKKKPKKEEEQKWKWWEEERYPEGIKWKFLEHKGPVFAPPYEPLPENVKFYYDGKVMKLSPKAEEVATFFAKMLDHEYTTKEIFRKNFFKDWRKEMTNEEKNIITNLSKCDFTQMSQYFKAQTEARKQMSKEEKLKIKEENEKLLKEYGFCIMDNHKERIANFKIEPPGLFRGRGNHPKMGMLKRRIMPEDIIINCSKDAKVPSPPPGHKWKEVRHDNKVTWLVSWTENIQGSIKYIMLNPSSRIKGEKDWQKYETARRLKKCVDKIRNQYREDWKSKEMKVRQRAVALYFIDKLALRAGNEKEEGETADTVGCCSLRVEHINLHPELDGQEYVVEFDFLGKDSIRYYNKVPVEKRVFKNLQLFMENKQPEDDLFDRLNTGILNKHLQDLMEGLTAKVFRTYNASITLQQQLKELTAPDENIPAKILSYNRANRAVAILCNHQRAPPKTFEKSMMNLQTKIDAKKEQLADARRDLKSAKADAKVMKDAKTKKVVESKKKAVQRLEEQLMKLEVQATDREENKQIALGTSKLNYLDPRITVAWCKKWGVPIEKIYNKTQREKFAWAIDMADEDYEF

Jo-1 = Jo-1 (Bos taurus (assumed), UniProt Q2KI84); test: as above; details: both partners purified
Jo-1, sequence (P12081 whole entry): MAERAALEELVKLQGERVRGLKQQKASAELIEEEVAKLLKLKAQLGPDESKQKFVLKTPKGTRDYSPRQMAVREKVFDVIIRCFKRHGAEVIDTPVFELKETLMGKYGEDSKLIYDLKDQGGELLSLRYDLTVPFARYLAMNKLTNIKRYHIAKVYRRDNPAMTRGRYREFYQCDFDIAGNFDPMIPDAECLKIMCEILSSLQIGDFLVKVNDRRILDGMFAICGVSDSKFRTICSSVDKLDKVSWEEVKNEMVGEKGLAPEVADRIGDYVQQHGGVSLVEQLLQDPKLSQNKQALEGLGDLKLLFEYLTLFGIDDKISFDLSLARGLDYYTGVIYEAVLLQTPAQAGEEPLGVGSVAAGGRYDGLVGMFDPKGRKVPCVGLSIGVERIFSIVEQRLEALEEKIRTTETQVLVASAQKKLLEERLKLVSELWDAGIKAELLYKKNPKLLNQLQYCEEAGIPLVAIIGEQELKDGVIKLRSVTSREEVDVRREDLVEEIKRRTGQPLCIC

Centromere B = target: T4, Centromere B (Homo sapiens, UniProt P07199); test: as above; details: both partners purified
T4 construct: source: bought: Prospec, PRO-390
T4 sequence (P07199 whole entry): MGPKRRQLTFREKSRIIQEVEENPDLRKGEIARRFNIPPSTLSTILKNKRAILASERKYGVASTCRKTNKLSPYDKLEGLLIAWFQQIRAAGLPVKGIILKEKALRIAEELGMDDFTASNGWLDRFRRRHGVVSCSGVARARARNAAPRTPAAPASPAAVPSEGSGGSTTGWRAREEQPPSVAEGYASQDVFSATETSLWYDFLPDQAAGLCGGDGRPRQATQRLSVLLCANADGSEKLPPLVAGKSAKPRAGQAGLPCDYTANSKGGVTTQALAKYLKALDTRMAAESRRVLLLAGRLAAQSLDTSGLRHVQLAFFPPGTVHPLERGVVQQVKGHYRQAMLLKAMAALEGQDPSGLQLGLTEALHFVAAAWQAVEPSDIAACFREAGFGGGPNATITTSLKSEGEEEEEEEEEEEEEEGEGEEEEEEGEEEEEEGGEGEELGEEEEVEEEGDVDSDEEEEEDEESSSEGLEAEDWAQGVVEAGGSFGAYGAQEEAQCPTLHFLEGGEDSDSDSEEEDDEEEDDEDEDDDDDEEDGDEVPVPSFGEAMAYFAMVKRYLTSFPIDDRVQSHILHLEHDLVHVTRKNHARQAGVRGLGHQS

SSB = target: T5, SSB (Bos taurus (assumed), UniProt P10881); test: as above; details: both partners purified
T5 construct: source: bought: Immunovision, SSB-3000
T5 sequence (P05455 whole entry): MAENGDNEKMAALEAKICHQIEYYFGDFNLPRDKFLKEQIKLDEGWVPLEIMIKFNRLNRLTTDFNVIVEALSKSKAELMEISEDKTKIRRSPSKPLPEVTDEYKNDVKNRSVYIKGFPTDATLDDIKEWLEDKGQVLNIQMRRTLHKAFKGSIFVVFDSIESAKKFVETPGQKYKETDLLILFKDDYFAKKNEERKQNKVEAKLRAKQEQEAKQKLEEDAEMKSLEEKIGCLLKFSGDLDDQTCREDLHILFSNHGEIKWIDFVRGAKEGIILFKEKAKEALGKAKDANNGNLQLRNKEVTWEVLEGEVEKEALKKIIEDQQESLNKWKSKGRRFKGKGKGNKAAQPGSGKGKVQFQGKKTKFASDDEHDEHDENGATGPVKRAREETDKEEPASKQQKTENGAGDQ

[3] = target: DENV3 (Philippines) virion (Dengue virus 3 Philippines (H87/1956 …, UniProt P27915)); test: ELISA; virion capture ELISA: virions captured on plates coated with 4G2 antibody; purified mAbs in 5-fold serial dilutions from 100 ug/mL, 1 hour at 37°C; HRP anti-human Ig; OD450; details: one partner purified
DENV4 (H241) virion = DENV4 (H241) virion (Dengue virus 4 H241, UniProt Q58HT7, strain); test: as above; details: one partner purified
[4] = target: T6, whole Zika PRVABC59 virion (Zika virus PRVABC59, UniProt A0A0X1LH65, strain); test: as above; details: one partner purified
T6 construct: also called ZIKV PRVABC59; whole ZIKV virion; source: ZIKV PRVABC59 from BEI, grown in Vero-81 cells, filtered cell supernatant

DENV1 (Hawaii) virion = target: T7, DENV1 (Hawaii) virion (Dengue virus 1 Hawaii (BEI NR-82), UniProt B5AGU1, strain); test: as above; details: one partner purified
T7 construct: also called DENV1 (Hawaii NR-82)

[5] = target: DENV2 (New Guinea C) virion (Dengue virus 2 New Guinea C, UniProt P14340, strain); test: as above; details: one partner purified
[6] = target: T1, ZIKV H/PF/2013 envelope (E) protein …; test: BLI; Octet Red96, 25°C, PBS pH 7.4; mAb captured on anti-human Ig AR2G tips; ZIKV E protein dimer 50-0.78 ug/mL; fast kinetic components of the heterogeneous ligand model fit; single measurement; details: both partners purified
ZIKV H/PF/2013 virion = target: T8, ZIKV H/PF/2013 virion (Zika virus H/PF/2013, strain); test: cryo-EM structure; purified virus and DH1017.Fab incubated on ice for 2 hours; single particle reconstruction with icosahedral symmetry, 4104 particles, 5.3 Å; details: both partners purified
T8 construct: also called ZIKV H/PF/2013 particles; Zika virion; copies: 180 +

Binder | EC50 [1] [pM] | EC50 [2] [pM] | binding result (Scl-70) | binding result (Jo-1) | binding result (Centromere B) | binding result (SSB) | binding result [3] | binding result (DENV4 (H241) virion) | EC50 [4] [pM] | binding result (DENV1 (Hawaii) virion) | binding result [5] | Kd [6] [pM] | koff [6] [s⁻¹] | stoichiometry N (ZIKV H/PF/2013 virion) [Fab per asymmetric unit]
DH1017.IgM (antibody, V domains shown, also called mAb DH1017.IgM; copies: 10 + 10) VH: QVQLQESGPGLVKPSQTLSLTCAVSGGSISSGDSYWSWIRQHPGKGLEWIGSIYYSGSTYYNPSLKSRVTIPIDTSKNQFSLKLSSVTAADTAVYYCARHVGDLRVNDAFDIWGQGTMVTVSS VL: QSVLTQPPSVSAAPGQKVTISCSGSSSNIGNNFVSWYQRLPGTPPKLLIYDSDKRPSGIPDRFSGSKSGTSATLGITGLQTGDEGDYYCGTWDRSLSVVVFGGGTKLTVL | 91 | 202 | no binding (tested: 10 ug/ml (start of the dilution series)) | no binding (tested: 10 ug/ml (start of the dilution series)) | no binding (tested: 10 ug/ml (start of the dilution series)) | no binding (tested: 10 ug/ml (start of the dilution series)) | no binding (tested: 100 ug/mL (start of the dilution series)) | no binding (tested: 100 ug/mL (start of the dilution series)) | 22 | no binding (tested: 100 ug/mL (start of the dilution series)) | no binding (tested: 100 ug/mL (start of the dilution series)) | 106000 | 0.0103 | –
DH1017.IgG (antibody, V domains shown, IgG1; also called recombinant DH1017.IgG; IgG1 isoform of DH1017; source: Expi 293i cells, co-transfected heavy and light chain plasmids, purified (Protein A resin)) VH: QVQLQESGPGLVKPSQTLSLTCAVSGGSISSGDSYWSWIRQHPGKGLEWIGSIYYSGSTYYNPSLKSRVTIPIDTSKNQFSLKLSSVTAADTAVYYCARHVGDLRVNDAFDIWGQGTMVTVSS VL: QSVLTQPPSVSAAPGQKVTISCSGSSSNIGNNFVSWYQRLPGTPPKLLIYDSDKRPSGIPDRFSGSKSGTSATLGITGLQTGDEGDYYCGTWDRSLSVVVFGGGTKLTVL | 929 | 463 | no binding (tested: 10 ug/ml (start of the dilution series)) | no binding (tested: 10 ug/ml (start of the dilution series)) | no binding (tested: 10 ug/ml (start of the dilution series)) | no binding (tested: 10 ug/ml (start of the dilution series)) | – | – | 112 | – | – | 123000 | 0.0091 | –
DH1017.Fab (Fab, V domains shown, also called DH1017 Fab fragment; Fab DH1017; source: Expi 293i cells, co-transfected heavy and light chain plasmids, purified (LambdaFabSelect agarose beads)) VH: QVQLQESGPGLVKPSQTLSLTCAVSGGSISSGDSYWSWIRQHPGKGLEWIGSIYYSGSTYYNPSLKSRVTIPIDTSKNQFSLKLSSVTAADTAVYYCARHVGDLRVNDAFDIWGQGTMVTVSS VL: QSVLTQPPSVSAAPGQKVTISCSGSSSNIGNNFVSWYQRLPGTPPKLLIYDSDKRPSGIPDRFSGSKSGTSATLGITGLQTGDEGDYYCGTWDRSLSVVVFGGGTKLTVL | 25100 | 1240 | no binding (tested: 10 ug/ml (start of the dilution series)) | no binding (tested: 10 ug/ml (start of the dilution series)) | no binding (tested: 10 ug/ml (start of the dilution series)) | no binding (tested: 10 ug/ml (start of the dilution series)) | – | – | – | – | – | – | – | 1.5
